In patent publication US8357701B2, “Galactokinase inhibitors” (University of Miami, priority 2007, dated 2013):

Assays:
[1] = tested on: Nc1ncnc2c1ncn2[C@@H]1O[C@H](COP(=O)(O)OP(=O)(O)OP(=O)(O)O)[C@@H](O)[C@H]1O; test: purified protein, by the assay type; conditions: other: substrates of purified human GALK
[2] = tested on: T1, O=C[C@H](O)[C@@H](O)[C@@H](O)[C@H](O)CO; test: standard pyruvate kinase/lactate dehydrogenase-coupled GALK assay; format: biochemical; conditions: other: substrates of purified human GALK
T1 construct: made in house; host or cells: Escherichia coli HMS174 (DE3), plasmid pET15b
Excerpt: As the percentage of substrate conversion can have significant impact on the accuracy of IC50 determination, the preferred approach is to determine reaction rates at initial velocity (i.e., zero substrate conversion). […] In this assay, the amount of galactose present in the reaction is kept in excess, whereas ATP consumed by the galactokinase reaction is recycled by the pyruvate kinase reaction. As a result, the reaction rates calculated will be close to initial velocity.
As the percentage of substrate conversion can have significant impact on the accuracy of IC50 determination, the preferred approach is to determine reaction rates at initial velocity (i.e., zero substrate conversion). […] The dose response of the selected compounds was analyzed using the standard pyruvate kinase/lactate dehydrogenase-Coupled assay. In this assay, the amount of galactose present in the reaction was kept in excess, whereas ATP consumed by the galactokinase reaction was recycled by the pyruvate kinase reaction. As a result, the reaction rates calculated were close to initial velocity.

human GALK (Homo sapiens)
Km [1]: 42 µM | Km [2]: 210 µM
